The results in this text go back to paper PMC5844992.

Assay [1] concerns the target HIV-1 NL4-3 wild-type protease (PR) tagged with CFP or YFP (HIV-1 (NL4-3)). Nature of the assay: FRET or BRET; as a1, cells cultured with 10 nM DRV added with the transfection.
Assay [2] shares this target. The assay is described as follows: FRET or BRET; FRET-based HIV-1 expression assay; COS-7 cells cotransfected with CFP- and YFP-tagged protease clones, 72 h, no DRV; acceptor photobleaching, CFP^A/B ratio > 1 means dimerization; confocal microscope, room temperature. (Bioluminescence resonance energy transfer reports proximity on the nanometre scale.)

Consider “HIV-1 NL4-3 wild-type protease (PR) tagged with CFP or YFP (enzyme)”, for which the figures for the CFP^A/B ratio in assay [1] and in assay [2] were 1.04 and 1.07, respectively.
